Test results reported in patent publication US20200024360A1 (Janssen / Centocor, published 2020).
Changes are numbered by the printed parent chain. Names may count otherwise.

Experiments:
[1] = molecular target: T1, cynomolgus CD3ε on primary cynomolgus CD4+ T cells (cynomolgus monkey, UniProt Q95LI5 22-198); assay: flow cytometry on primary cynomolgus CD4+ T cells (CD3e), anti-human IgG (H+L) Alexa Fluor 647
T1 construct: whole, on cells
Procedure: (§1) The resulting panel of anti-CD3 antibodies was tested for binding against cell-surface CD3ε on primary human T cells. To do this, binding of antibodies from expression supernatants was visualized using a polyclonal anti-human secondary antibody and analyzed by flow cytometry. Briefly, binding of anti-CD3 antibodies to cell-surface CD3E was assessed by flow cytometry using primary Human T lymphocytes purified by negative selection (Biological Specialty, Colmar, USA). Expression supernatants or purified antibodies were normalized to 10 μg/ml in media or FACS buffer (BD BioSciences), respectively. 2×10⁵ cells were aliquoted into wells of a 96 well round-bottomed plate (CoStar) for labeling. Antibodies in expression supernatant were added to cells and incubated for 45 min at 4° C. Following centrifugation at 1300 rpm for 3 min and removal of supernatant, 50 μL of anti-human IgG (H+L) Alexa Fluor 647 secondary antibody (Life technologies Inc.) was incubated with the cells at a final concentration of 10 μg/mL for 30 min at 4° C. away from direct light. Following washing and resuspension in 30 μL FACs buffer (BD BioSciences). Sample collection was performed on an Intellicyt HTFC system using ForeCyt software. Viable single cells were gated prior to analysis of binding using the green or red fixable live/dead dyes (Life Technologies Inc.) and forward/side scatter area and height parameters, respectively. Graphs were generated in GraphPad Prism version 5 using mean fluorescence intensity values.
Binding analysis of the anti-CD3 hits to primary cynomolgus CD4⁺ T cells was then tested in order to assess the retention of cross-reactivity. Purified CD4⁺ T cells from the peripheral blood of cynomolgus monkeys (Zen Bio, Triangle Research Park, USA were used). Assay protocols were similar to those described above.

[2] = molecular target: T2, human PSMA (prostate specific membrane antigen), full length (human, UniProt Q04609 1-750); assay: flow cytometry cell binding assay, bispecific antibody titrated on LNCaP cells (human PSMA)
T2 construct: On LNCaP or C4-2B cells (endogenous) or transduced HEK293F cells; also called FOLH1_HUMAN; hPSMA
Procedure: PSMA×CD3 bispecific antibodies were tested for binding to PSMA positive cell lines LNCAP, human PSMA-HEK, Chimpanzee-PSMA-HEK and Cynomolgous monkey PSMA-HEK. To assess the binding capabilities of the PSMA bispecific antibodies, the cell-binding assay was utilized (described previously). Briefly, PSMA expressing tumor cells are bound by bispecific antibodies at known concentrations and the bound antibody is detected by an anti-human kappa light chain PE conjugated detection reagent (Invitrogen). The Mean Fluorescents Intensity (MFI) is the measure of bound bispecific antibody. The MFI is converted to a relative EC₅₀. EC₅₀ is a commonly used dose-response curve, where the half maximal effective concentration or the EC₅₀ point is defined as the inflection point of the curve. EC₅₀ s were determined by measuring cell bound bispecific and known concentrations. […] The dose response curves were then diluted down to that of background or no bispecific binding. The inflection point of this curve reflects the EC₅₀ point. The calculated EC₅₀ is determined by taking the ug/ml amount of bispecific antibody at the EC₅₀ point and converting it to a molarity value based on the MW of the bispecific antibody. Bispecific antibodies were normalized for protein concentration and then incubated with the same number of cells expressing either human or cyno PSMA. The MFI at each concentration was collected by flow cytometry and plotted as a function of concentration. Data was transformed via log 10 and then plotted. Nonlinear regression of binding curves was done to determine EC₅₀ s. These relative values were used for ranking PSMA binding to target cells.
PSMA×CD3 bispecific antibodies were tested for binding to PSMA positive cell line, LNCAP, to PSMA negative cell line, PC3. To assess the binding capabilities of the PSMA bispecific antibodies, the cell-binding assay was utilized (described previously). Bispecific antibodies were normalized for protein concentration and then incubated with the same number of cells expressing either human or cyno PSMA. The MFI at each concentration was collected by flow cytometry and plotted as a function of concentration.

[3] = molecular target: T3, human CD3ε on primary human T cells (human, UniProt P07766 23-207); assay: flow cytometry on primary human T cells (cell-surface CD3e), anti-human IgG (H+L) Alexa Fluor 647; one intermediate concentration of the titration is shown
T3 construct: whole, on cells; Part of the TCR-CD3 complex on the cells; also called cell-surface CD3ε; CD3E
Procedure: as §1

T2 sequence (Q04609 whole entry): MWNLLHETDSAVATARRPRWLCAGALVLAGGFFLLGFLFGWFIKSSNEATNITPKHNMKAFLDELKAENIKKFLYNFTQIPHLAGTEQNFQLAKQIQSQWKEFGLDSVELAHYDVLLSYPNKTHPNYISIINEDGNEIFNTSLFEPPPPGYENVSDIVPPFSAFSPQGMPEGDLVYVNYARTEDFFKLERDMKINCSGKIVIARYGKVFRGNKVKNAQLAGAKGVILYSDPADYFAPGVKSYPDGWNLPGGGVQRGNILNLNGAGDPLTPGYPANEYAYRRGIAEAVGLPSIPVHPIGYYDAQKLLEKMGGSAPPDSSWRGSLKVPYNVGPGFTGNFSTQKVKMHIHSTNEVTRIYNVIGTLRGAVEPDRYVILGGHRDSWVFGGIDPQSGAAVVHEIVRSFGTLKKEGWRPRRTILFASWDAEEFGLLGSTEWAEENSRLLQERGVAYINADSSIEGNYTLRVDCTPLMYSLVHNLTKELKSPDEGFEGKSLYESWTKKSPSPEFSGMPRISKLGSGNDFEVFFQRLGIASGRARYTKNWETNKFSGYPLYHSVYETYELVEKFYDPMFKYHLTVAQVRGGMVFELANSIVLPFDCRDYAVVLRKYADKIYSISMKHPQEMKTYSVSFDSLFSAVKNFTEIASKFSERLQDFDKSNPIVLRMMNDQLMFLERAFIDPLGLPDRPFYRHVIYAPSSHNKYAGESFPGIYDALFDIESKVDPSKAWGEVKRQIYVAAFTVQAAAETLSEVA
T3 sequence (P07766 23-207): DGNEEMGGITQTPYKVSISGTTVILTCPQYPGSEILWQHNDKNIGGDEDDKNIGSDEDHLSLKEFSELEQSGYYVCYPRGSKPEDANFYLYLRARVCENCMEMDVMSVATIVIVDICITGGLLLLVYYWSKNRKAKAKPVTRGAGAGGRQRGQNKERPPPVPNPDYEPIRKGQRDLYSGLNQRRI
T1 sequence (Q95LI5 22-198): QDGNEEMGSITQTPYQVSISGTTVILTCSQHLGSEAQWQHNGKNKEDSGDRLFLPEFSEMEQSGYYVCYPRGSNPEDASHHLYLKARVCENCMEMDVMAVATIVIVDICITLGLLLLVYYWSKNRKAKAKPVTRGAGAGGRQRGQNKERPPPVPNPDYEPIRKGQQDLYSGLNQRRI

B1: CD3B124 (antibody, V domains shown)
VH: EVKLLESGGGLVQPKGSLKLSCAASGFTFNTYAMNWVRQAPGKGLEWVARIRSKYNNYATYYADSVKDRFTISRDDSQSILYLQMNNLKTEDTAMYYCVRHGNFGNSYVSWFAYWGQGTLVTVSA
VL: QAVVTQESALTTSPGETVTLTCRSSTGAVTTSNYANWVQEKPDHLFTGLIGGTNKRAPGVPARFSGSLIGDKAALTITGAQTEDEAIYFCALWYSNLWVFGGGTKLTVL
notes: also called chimeric SP34-derived antibody
Q: Does B1 bind [1]?
A: binds

B2: PS3B72 (bispecific antibody, human IgG4 S228P, kappa, lambda, F234A L235A)
heavy 1: not shown
light 1: not shown
heavy 2: EVQLVESGGGLVQPGGSLRLSCAASGFTFNTYAMNWVRQAPGKGLEWVARIRSKYNNYATYYAASVKGRFTISRDDSKNSLYLQMNSLKTEDTAVYYCARHGNFGNSYVSWFAYWGQGTLVTVSSASTKGPSVFPLAPCSRSTSESTAALGCLVKDYFPEPVTVSWNSGALTSGVHTFPAVLQSSGLYSLSSVVTVPSSSLGTKTYTCNVDHKPSNTKVDKRVESKYGPPCPPCPAPEAAGGPSVFLFPPKPKDTLMISRTPEVTCVVVDVSQEDPEVQFNWYVDGVEVHNAKTKPREEQFNSTYRVVSVLTVLHQDWLNGKEYKCKVSNKGLPSSIEKTISKAKGQPREPQVYTLPPSQEEMTKNQVSLTCLVKGFYPSDIAVEWESNGQPENNYKTTPPVLDSDGSFLLYSKLTVDKSRWQEGNVFSCSVMHEALHNHYTQKSLSLSLGK
light 2: QTVVTQEPSLTVSPGGTVTLTCRSSTGAVTTSNYANWVQQKPGQAPRGLIGGTNKRAPGTPARFSGSLLGGKAALTLSGVQPEDEAEYYCALWYSNLWVFGGGTKLTVLGQPKAAPSVTLFPPSSEELQANKATLVCLISDFYPGAVTVAWKADSSPVKAGVETTTPSKQSNNKYAASSYLSLTPEQWKSHRSYSCQVTHEGSTVEKTVAPTECS
notes: IgG4 PAA; PSMA arm first, then CD3 arm (F405L, R409K); also called PSMB360 x CD3B219
Q: Does B2 bind [2]?
A: binds

B3: PS3B75 (bispecific antibody, human IgG4 S228P, kappa, lambda, F234A L235A)
heavy 1: not shown
light 1: not shown
heavy 2: B2 heavy 2
light 2: B2 light 2
notes: IgG4 PAA; PSMA arm first, then CD3 arm (F405L, R409K); also called PSMB363 x CD3B219
Q: Does B3 bind [2]?
A: binds

B4: PS3B74 (bispecific antibody, human IgG4 S228P, kappa, lambda, F234A L235A)
heavy 1: not shown
light 1: not shown
heavy 2: B2 heavy 2
light 2: B2 light 2
notes: IgG4 PAA; PSMA arm first, then CD3 arm (F405L, R409K); also called PSMB362 x CD3B219
Q: Does B4 bind [2]?
A: binds

B5: PS3B73 (bispecific antibody, human IgG4 S228P, kappa, lambda, F234A L235A)
heavy 1: not shown
light 1: not shown
heavy 2: B2 heavy 2
light 2: B2 light 2
notes: IgG4 PAA; PSMA arm first, then CD3 arm (F405L, R409K); also called PSMB361 x CD3B219
Q: Does B5 bind [2]?
A: binds

B6: CD3B150 (antibody, V domains shown)
VH: EVQLLESGGGLVQPGGSLRLSCAASGFTFNTYAMNWVRQAPGKGLEWVARIRSKYNNYATYYADSVKGRFTISRDNSKNTLYLQMNSLRAEDTAVYYCAKHGNFGNSYVSWFAYWGQGTLVTVSS
VL: QTVVTQEPSLTVSPGGTVTLTCRSSTGAVTTSNYANWVQQKPGQAPRGLIGGTNKRAPGTPARFSGSLLGGKAALTLSGVQPEDEAEYYCALWYSNLWVFGGGTKLTVL
notes: also called CD3H142/CD3L66; CD3B50
Q: Does B6 bind [1]?
A: binds

Q: Does B6 bind [3]?
A: binds

B7: CD3B148 (antibody, V domains shown)
VH: B6 VH
VL: QSVLTQPPSVSAAPGQKVTISCRSSTGAVTTSNYANWVQQLPGTAPKGLIGGTNKRAPGIPDRFSGSKSGTSATLGITGLQTGDEADYYCALWYSNLWVFGGGTKLTVL
notes: also called CD3H142/CD3L64
Q: Does B7 bind [3]?
A: binds

B8: CD3B158 (antibody, V domains shown)
VH: EVQLVESGGGLVQPGGSLKLSCAASGFTFNTYAMNWVRQASGKGLEWVGRIRSKYNGYATYYAASVKGRFTISRDDSKNTAYLQMNSLKTEDTAVYYCTRHGNFGNSYVSWFAYWGQGTLVTVSS
VL: B6 VL
notes: also called CD3H144/CD3L66
Q: Does B8 bind [1]?
A: binds

Q: Does B8 bind [3]?
A: binds

B9: CD3B143 (antibody, V domains shown)
VH: B6 VH with L5V, D64A, N76D, T80S, R89K, A90T, K100R
VL: B6 VL with T2A, V80A
notes: also called CD3H141/CD3L63
Q: Does B9 bind [1]?
A: binds

Q: Does B9 bind [3]?
A: binds

B10: CD3B146 (antibody, V domains shown)
VH: B6 VH with L5V, D64A, N76D, T80S, R89K, A90T, K100R
VL: B6 VL
notes: also called CD3H141/CD3L66
Q: Does B10 bind [1]?
A: binds

Q: Does B10 bind [3]?
A: binds
